Tests used:
[1] = target: CH505 T/F UFO Env trimer (HIV-1 (subject CH505)); test: native gel or EMSA; blue native gel (NativePAGE 3-12% Bis-Tris) of the fractions collected from SEC
[2] = target: CH505 T/F UFO Env trimer (HIV-1 (subject CH505)); test: SEC; lectin-purified Env proteins separated on a Superdex 200 Increase 10/300 GL column

Substance: CH505 T/F UFO Env trimer
- stoichiometry N [1]: 3
- stoichiometry N [2]: 3

Reference: paper PMC10454455
